# Laboratory results taken from US12648946B2, “Combination of antibody-pyrrolobenzodiazepine derivative conjugate and PARP inhibitor” (DAIICHI SANKYO COMPANY, LIMITED, priority 2019, dated 2026).
# T1: human claudin-6 (Homo sapiens, UniProt P56747)
# T1 construct: expressed in transfected cells; host or cells: CHO-K1 cells
# T1 sequence (P56747 1-220): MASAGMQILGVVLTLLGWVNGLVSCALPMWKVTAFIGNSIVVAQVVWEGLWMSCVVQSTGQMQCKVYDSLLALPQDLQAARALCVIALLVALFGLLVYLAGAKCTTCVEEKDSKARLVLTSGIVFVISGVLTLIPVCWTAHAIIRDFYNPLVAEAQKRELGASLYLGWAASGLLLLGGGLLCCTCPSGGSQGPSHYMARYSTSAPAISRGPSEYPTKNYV
# Tests used:
# [1] = tested on: JEG-3, human choriocarcinoma cell line of human CLDN6-positive cells; test: Internalization activity of antibodies (Mab-ZAP, CellTiter-Glo); assay type: cell-based; conditions: antibody 1 nM with Mab-ZAP 0.5 nM, 5 days
# Description: (§1) Internalization activity of the mouse anti-CLDN6 antibodies B1 and C7 was evaluated by using the anti-mouse IgG reagent, to which a toxin that inhibits protein synthesis (saporin) had been conjugated, Mab-ZAP (Advanced Targeting Systems). In this evaluation, Mab-ZAP is incorporated into cells in a manner depending on the internalization activity of a mouse anti-CLDN6 antibody, and saporin, which inhibits protein synthesis, is released in the cells to suppress cell growth.
# (§2) JEG-3 (ATCC HTB-36), a human choriocarcinoma cell line of human CLDN6-positive cells, NIH: OVCAR-3 (ATCC HTB-161), a human ovarian cancer cell line of human CLDN6-positive cells, or BxPC-3 (ATCC CRL-1687), a human pancreatic cancer cell line of human CLDN6-negative cells, was seeded in a 96-well cell culture microplate at 2×10^3 cells/well, and cultured under conditions of 37° C. and 5% CO2 overnight. On the next day, a mixed solution obtained by mixing each mouse anti-CLDN6 antibody or mouse IgG1 antibody (R&D Systems, Inc.) to a final concentration of 1 nM, with Mab-ZAP (final concentration: 0.5 nM) or AffiniPure Goat Anti-Mouse IgG, Fcγ Fragment Specific (Jackson ImmunoResearch Laboratories Inc.) (final concentration: 0.5 nM), without conjugated toxin, was added, and the cells were cultured under conditions of 37° C. and 5% CO2 for 5 days. The number of surviving cells was determined through quantification of ATP activity by using CellTiter-Glo Luminescent Cell Viability Assay (Promega Corporation).
# [2] = tested on: BxPC-3, human pancreatic cancer cell line of human CLDN6-negative cells; test: as above; assay type: cell-based; conditions: antibody 1 nM with Mab-ZAP 0.5 nM, 5 days
# Description: as §1, §2
# [3] = tested on: NIH: OVCAR-3, human ovarian cancer cell line of human CLDN6-positive cells; test: as above; assay type: cell-based; conditions: antibody 1 nM with Mab-ZAP 0.5 nM, 5 days
# Description: as §1, §2
# [4] = target: T1, human claudin-6; test: FACS analysis of hybridoma antibodies on claudin-6 forced-expression cells; assay type: binding; conditions: human claudin-6-expressing CHO-K1 cells, cDNA transfection
# Description: Since the antigen for the 218B1 antibody and 218C7 antibody was estimated to be claudin-6 from the mass spectrometry, forced expression analysis by cDNA transfection was carried out.
molecule,measurement,setting,value
"C7: mouse anti-CLDN6 antibody from hybridoma 218C7; heavy chain variable region SEQ ID NO: 25, light chain SEQ ID NO: 23 (antibody, listed as Mus musculus, V domains shown, amino acid sequence of variable region of C7 antibody heavy chain; amino acid sequence of variable region of C7 antibody light chain) VH: EVQLQQSGPELVKPGASVKISCKTSGYTFTEYTMHWVQQSHGKSLEWIGGVNPNSGDTSYNQKFKGKATLTVDKSSSTAYMELRSLTSEDSAVYYCARPGGYDVGYYAMDYWGQGTSVTVSS VL: DIQMTQTASSLSASLGDRVTISCRASQDINNYLNWYQQKPDGTVKLLIYSTSRLHSGVPSRFSGSGSGTHYSLTITHLEQEDIATYFCQQGYPLPWTFGGGTKLEIK",Cell growth-suppressing effect (internalization activity),[1],cell growth-suppressing effect
same,Cell growth-suppressing effect (internalization activity),[2],no cell growth-suppressing effect
same,Cell growth-suppressing effect (internalization activity),[3],cell growth-suppressing effect
same,FACS reaction,[4],strong positive reaction
